According to publication PMC11594316, “Novel DNA Aptamers to Dickkopf-1 Protein and Their Application in Colorimetric Sandwich Assays for Target Detection in Patients with Axial Spondyloarthritis”:

T1: Dickkopf-1 (DKK-1) (human, UniProt O94907 32-266)
T1 sequence: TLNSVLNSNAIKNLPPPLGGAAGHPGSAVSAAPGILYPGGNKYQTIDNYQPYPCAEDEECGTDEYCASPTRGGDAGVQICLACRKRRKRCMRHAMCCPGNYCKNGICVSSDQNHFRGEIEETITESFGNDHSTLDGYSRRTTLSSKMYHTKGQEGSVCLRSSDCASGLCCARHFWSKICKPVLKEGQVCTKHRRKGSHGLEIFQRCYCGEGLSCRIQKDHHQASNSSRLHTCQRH


Molecular target: T1, Dickkopf-1 (DKK-1)
Assay: ELASA; ELASA: DKK-1 coated at 2 ug/mL, BSA-blocked; aptamer 3.12-100 nM in PBSMT (1x PBS pH 7.4, 5 mM MgCl2, 0.05% Tween 20), 1 h, 25 C
Conditions: protein: commercial, tags: N-terminal His-tag (stated for the selection protein), label: biotin

Binder | Kd (three-way junction) | Kd (stem-loop)
CCTCGGAGTGCGTACAGCAAGCACATATGTGCTCTCCCAGG (ssDNA, 3'-amino linker (C6, Spacer 18)) [DK4_41t] | 5.6 ± 3 nM | –
CGGTGTACCCGCATAGACCCTGCGTCCGCTGTATGTACACGTAAGCCG (ssDNA, 3'-amino linker (C6, Spacer 18)) [DK2_48t] | 3.3 ± 2 nM | –
CGGCATGTATCTGGCTGCTGAGTGTACGATTCCAGTATATATGAGCCG (ssDNA, 3'-amino linker (C6, Spacer 18)) [DK1_48t] | – | 10 ± 6 nM
CACGACTCGGAGTGCGTACAGCAAGCACATATGTGCTCTCCCAGAGCGTG (ssDNA, 3'-amino linker (C6, Spacer 18)) [DK4_50t] | 6.1 ± 2 nM | –
DK2_58t (ssDNA, 3'-amino linker (C6, Spacer 18)) DNA: CGACTCGGTGTACCCGCATAGACCCTGCGTCCGCTGTATGTACACGTAAGCCCTGTCG | 3.6 ± 2 nM | –
